Results from publication PMC4682653.

Test system: UvrY-His6 phosphorylated (UvrY-P) (Escherichia coli MG1655)
Experiment: EMSA
Conditions: in vitro phosphorylated; 20 mM Tris-HCl pH 7.5, 10% glycerol, 50 mM KCl, 3 mM MgCl2, 1 mM DTT, 100 ug/mL BSA, 0.5 nM DNA, 30 min at 37 C (Fig 3 legend: room temperature)

csrC EMSA probe (-247 to +56)
binding signal (fold affinity vs non-phosphorylated UvrY): 2

csrB EMSA probe (-246 to +49)
binding signal (fold affinity vs non-phosphorylated UvrY): 2
